Assay results reported in PMC12094245.

Target: human recombinant NEK2 protein (Abcam, ab42599), RED-NHS labelled (human) (UniProt P51955)
Assay: MST

B1: SPTLC1 protein tested in the MST assay (enzyme)
chain: MATATEQWVLVEMVQALYEAPAYHLILEGILILWIIRLLFSKTYKLQERSDLTVKEKEELIEEWQPEPLVPPVPKDHPALNYNIVSGPPSHKTVVNGKECINFASFNFLGLLDNPRVKAAALASLKKYGVGTCGPRGFYGTFDVHLDLEDRLAKFMKTEEAIIYSYGFATIASAIPAYSKRGDIVFVDRAACFAIQKGLQASRSDIKLFKHNDMADLERLLKEQEIEDQKNPRKARVTRRFIVVEGLYMNTGTICPLPELVKLKYKYKARIFLEESLSFGVLGEHGRGVTEHYGINIDDIDLISANMENALASIGGFCCGRSFVIDHQRLSGQGYCFSASLPPLLAAAAIEALNIMEENPGIFAVLKEKCGQIHKALQGISGLKVVGESLSPAFHLQLEESTGSREQDVRLLQEIVDQCMNRSIALTQARYLEKEEKCLPPPSIRVVVTVEQTEEELERAASTIKEVAQAVLL
Kd: 350 nM
